Data set [1] relates to HeLa Kyoto. The data set is described as follows: solubility in G1/S (NP-40 vs SDS abundance) (log2 ratio); higher = more soluble. As to conditions: cell cycle stage: G1/S.
In data set [2] the test system is HeLa Kyoto. Description: melting temperature (median over replicates), in situ; higher = more thermally stable.
Data set [3] has as its system HeLa Kyoto. The data set is described as follows: solubility change mitosis vs G1/S (difference of NP-40 vs SDS log2 ratios) (log2 ratio difference); higher = more soluble in mitosis.
Data set [4] relates to HeLa Kyoto. The data set is described as follows: thermal stability score vs G1/S (z-score of summed log2 fold changes over temperatures); higher = more thermally stable than in G1/S.
Setting [5] is: cell cycle stage: early G1 (4.5 h after nocodazole release).
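Wherever melting temperature (median over replicates), in situ is given: HeLa Kyoto cells synchronized by double thymidine or nocodazole block, proteins quantified by TMT10plex mass spectrometry, three independent biological replicates.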
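Wherever solubility change mitosis vs G1/S (difference of NP-40 vs SDS log2 ratios) is given: synchronized HeLa Kyoto cells (double thymidine block for G1/S, nocodazole release for mitosis), protein amounts in NP-40 versus SDS lysates quantified by mass spectrometry, three biological replicates.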
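Wherever solubility in G1/S (NP-40 vs SDS abundance) is given: HeLa Kyoto cells arrested at G1/S by double thymidine block, proteins quantified by TMT10plex mass spectrometry in mild NP-40 versus SDS extracts, three biological replicates.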
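Wherever thermal stability score vs G1/S (z-score of summed log2 fold changes over temperatures) is given: synchronized HeLa Kyoto cells, proteins quantified by TMT10plex mass spectrometry, three biological replicates, mitosis taken 0.5 h after nocodazole release, G1/S directly after double thymidine block.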

CDK13, sequence (chain, as listed by the source): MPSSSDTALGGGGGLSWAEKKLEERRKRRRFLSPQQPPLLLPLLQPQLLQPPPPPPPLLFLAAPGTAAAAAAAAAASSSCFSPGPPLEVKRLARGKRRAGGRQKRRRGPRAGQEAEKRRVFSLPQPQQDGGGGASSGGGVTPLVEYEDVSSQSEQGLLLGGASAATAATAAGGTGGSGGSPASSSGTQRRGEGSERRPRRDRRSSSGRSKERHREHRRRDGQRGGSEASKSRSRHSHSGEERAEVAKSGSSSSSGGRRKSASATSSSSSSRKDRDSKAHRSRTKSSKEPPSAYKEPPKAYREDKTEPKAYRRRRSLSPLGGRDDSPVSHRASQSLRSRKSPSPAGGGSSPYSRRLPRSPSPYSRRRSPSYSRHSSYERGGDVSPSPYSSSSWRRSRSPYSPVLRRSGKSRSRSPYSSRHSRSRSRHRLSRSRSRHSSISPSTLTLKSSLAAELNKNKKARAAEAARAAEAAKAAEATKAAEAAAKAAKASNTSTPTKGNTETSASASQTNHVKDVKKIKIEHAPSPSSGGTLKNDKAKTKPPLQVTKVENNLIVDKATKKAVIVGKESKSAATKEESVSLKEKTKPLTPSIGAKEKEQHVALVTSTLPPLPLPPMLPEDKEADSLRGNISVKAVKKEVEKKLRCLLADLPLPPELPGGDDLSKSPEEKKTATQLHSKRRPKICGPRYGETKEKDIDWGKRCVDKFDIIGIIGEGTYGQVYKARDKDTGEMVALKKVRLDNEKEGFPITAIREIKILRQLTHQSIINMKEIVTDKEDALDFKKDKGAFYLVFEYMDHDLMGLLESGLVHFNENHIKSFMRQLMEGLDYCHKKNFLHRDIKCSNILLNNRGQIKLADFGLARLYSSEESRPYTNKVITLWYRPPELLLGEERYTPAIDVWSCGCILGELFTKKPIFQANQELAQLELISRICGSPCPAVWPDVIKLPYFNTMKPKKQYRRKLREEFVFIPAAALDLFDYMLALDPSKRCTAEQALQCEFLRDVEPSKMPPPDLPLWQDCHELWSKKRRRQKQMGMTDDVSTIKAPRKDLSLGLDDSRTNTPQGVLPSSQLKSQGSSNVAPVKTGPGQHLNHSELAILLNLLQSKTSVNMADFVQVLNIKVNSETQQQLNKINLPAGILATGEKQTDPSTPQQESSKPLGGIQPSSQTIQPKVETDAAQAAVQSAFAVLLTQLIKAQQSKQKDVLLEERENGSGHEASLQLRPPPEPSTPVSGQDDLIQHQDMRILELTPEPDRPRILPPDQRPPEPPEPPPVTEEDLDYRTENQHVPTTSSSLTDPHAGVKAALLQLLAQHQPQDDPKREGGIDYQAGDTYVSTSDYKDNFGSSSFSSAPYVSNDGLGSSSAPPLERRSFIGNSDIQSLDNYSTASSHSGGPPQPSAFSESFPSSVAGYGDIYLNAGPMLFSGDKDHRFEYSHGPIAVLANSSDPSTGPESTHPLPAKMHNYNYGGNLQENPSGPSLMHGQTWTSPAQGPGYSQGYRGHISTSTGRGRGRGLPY

For CDK13, the “solubility in G1/S (log2)” value with HeLa Kyoto [1] was -0.604. For the same substance, the melting temperature was determined as 50.9 °C in the data set with HeLa Kyoto [2] (cell cycle stage: G1/S) and 52.5 °C with HeLa Kyoto [2] (cell cycle stage: mitosis). The “solubility change mitosis (log2)” value with HeLa Kyoto [3] came to 0.194. The figures for the thermal stability score in the data set on HeLa Kyoto [4] (setting [5]) and in the data set with HeLa Kyoto [4] (cell cycle stage: mitosis) were -0.541 and 0.202, respectively.
In the case of “MSDTLTADVIGRRVEVNGEHATVRFAGVVPPVAGPWLGVEWDNPERGKHDGSHEGTVYFKCRHPTGGSFIRPNKVNFGTDFLTAIKNRYVLEDGPEEDRKEQIVTIGNKPVETIGFDSIMKQQSQLSKLQEVSLRNCAVSCAGEKGGVAEACPNIRKVDLSKNLLSSWDEVIHIADQLRHLEVLNVSENKLKFPSGSVLTGTLSVLKVLVLNQTGITWAEVLRCVAGCPGLEELYLESNNIFISERPTDVLQTVKLLDLSSNQLIDENQLYLIAHLPRLEQLILSDTGISSLHFPDAGIGCKTSMFPSLKYLVVNDNQISQWSFFNELEKLPSLRALSCLRNPLTKEDKEAETARLLIIASIGQLKTLNKCEILPEERRRAELDYRKAFGNEWKQAGGHKDPEKNRLSEEFLTAHPRYQFLCLKYGAPEDWELKTQQPLMLKNQLLTLKIKYPHQLDQKVLEKQLPGSMTIQKVKGLLSRLLKVPVSDLLLSYESPKKPGREIELENDLKSLQFYSVENGDCLLVRW [TBCE]”, in the data set on HeLa Kyoto [1], the “solubility in G1/S (log2)” value was determined as 0.308. Further, the melting temperature is 47.9 °C in the data set on HeLa Kyoto [2] (cell cycle stage: G1/S) and 48.4 °C with HeLa Kyoto [2] (cell cycle stage: mitosis). For the same substance, the “solubility change mitosis (log2)” value in the data set on HeLa Kyoto [3] was -0.101. Further, the thermal stability score in the data set with HeLa Kyoto [4] (setting [5]) was -0.0546; in the data set with HeLa Kyoto [4] (cell cycle stage: mitosis), 1.48.
On to “MSLSRSEEMHRLTENVYKTIMEQFNPSLRNFIAMGKNYEKALAGVTYAAKGYFDALVKMGELASESQGSKELGDVLFQMAEVHRQIQNQLEEMLKSFHNELLTQLEQKVELDSRYLSAALKKYQTEQRSKGDALDKCQAELKKLRKKSQGSKNPQKYSDKELQYIDAISNKQGELENYVSDGYKTALTEERRRFCFLVEKQCAVAKNSAAYHSKGKELLAQKLPLWQQACADPSKIPERAVQLMQQVASNGATLPSALSASKSNLVISDPIPGAKPLPVPPELAPFVGRMSAQESTPIMNGVTGPDGEDYSPWADRKAAQPKSLSPPQSQSKLSDSYSNTLPVRKSVTPKNSYATTENKTLPRSSSMAAGLERNGRMRVKAIFSHAAGDNSTLLSFKEGDLITLLVPEARDGWHYGESEKTKMRGWFPFSYTRVLDSDGSDRLHMSLQQGKSSSTGNLLDKDDLAIPPPDYGAASRAFPAQTASGFKQRPYSVAVPAFSQGLDDYGARSMSRNPFAHVQLKPTVTNDRCDLSAQGPEGREHGDGSARTLAGR [BAIAP2]”, for which the “solubility in G1/S (log2)” value in the data set with HeLa Kyoto [1] was determined as 0.466. Besides, the values for the melting temperature in the data set with HeLa Kyoto [2] (cell cycle stage: G1/S) and with HeLa Kyoto [2] (cell cycle stage: mitosis) were 50.6 °C and 51.2 °C, respectively. Also, in the data set with HeLa Kyoto [3], the “solubility change mitosis (log2)” value is 0.0657. Also, the results for the thermal stability score in the data set with HeLa Kyoto [4] (setting [5]) and in the data set on HeLa Kyoto [4] (cell cycle stage: mitosis) were 0.524 and 0.515, respectively.
Regarding “MAAGGSTQQRRREMAAASAAAISGAGRCRLSKIGATRRPPPARVRVAVRLRPFVDGTAGASDPPCVRGMDSCSLEIANWRNHQETLKYQFDAFYGERSTQQDIYAGSVQPILRHLLEGQNASVLAYGPTGAGKTHTMLGSPEQPGVIPRALMDLLQLTREEGAEGRPWALSVTMSYLEIYQEKVLDLLDPASGDLVIREDCRGNILIPGLSQKPISSFADFERHFLPASRNRTVGATRLNQRSSRSHAVLLVKVDQRERLAPFRQREGKLYLIDLAGSEDNRRTGNKGLRLKESGAINTSLFVLGKVVDALNQGLPRVPYRDSKLTRLLQDSLGGSAHSILIANIAPERRFYLDTVSALNFAARSKEVINRPFTNESLQPHALGPVKLSQKELLGPPEAKRARGPEEEEIGSPEPMAAPASASQKLSPLQKLSSMDPAMLERLLSLDRLLASQGSQGAPLLSTPKRERMVLMKTVEEKDLEIERLKTKQKELEAKMLAQKAEEKENHCPTMLRPLSHRTVTGAKPLKKAVVMPLQLIQEQAASPNAEIHILKNKGRKRKLESLDALEPEEKAEDCWELQISPELLAHGRQKILDLLNEGSARDLRSLQRIGPKKAQLIVGWRELHGPFSQVEDLERVEGITGKQMESFLKANILGLAAGQRCGAS [KIF22]”, the “solubility in G1/S (log2)” value with HeLa Kyoto [1] is -0.459. In addition, the melting temperature with HeLa Kyoto [2] (cell cycle stage: G1/S) is 50 °C; in the data set on HeLa Kyoto [2] (cell cycle stage: mitosis) it was 48.2 °C. In the data set on HeLa Kyoto [3], the “solubility change mitosis (log2)” value was 0.342. Further, the thermal stability score came out at 1.72 in the data set with HeLa Kyoto [4] (setting [5]) and 2.31 with HeLa Kyoto [4] (cell cycle stage: mitosis).
Turning to “MLLSVPLLLGLLGLAVAEPAVYFKEQFLDGDGWTSRWIESKHKSDFGKFVLSSGKFYGDEEKDKGLQTSQDARFYALSASFEPFSNKGQTLVVQFTVKHEQNIDCGGGYVKLFPNSLDQTDMHGDSEYNIMFGPDICGPGTKKVHVIFNYKGKNVLINKDIRCKDDEFTHLYTLIVRPDNTYEVKIDNSQVESGSLEDDWDFLPPKKIKDPDASKPEDWDERAKIDDPTDSKPEDWDKPEHIPDPDAKKPEDWDEEMDGEWEPPVIQNPEYKGEWKPRQIDNPDYKGTWIHPEIDNPEYSPDPSIYAYDNFGVLGLDLWQVKSGTIFDNFLITNDEAYAEEFGNETWGVTKAAEKQMKDKQDEEQRLKEEEEDKKRKEEEEAEDKEDDEDKDEDEEDEEDKEEDEEEDVPGQAKDEL [CALR]”, in the data set on HeLa Kyoto [1], the “solubility in G1/S (log2)” value came out at 0.0117. For the same substance, the melting temperature came out at 54.6 °C in the data set on HeLa Kyoto [2] (cell cycle stage: G1/S) and 54.9 °C with HeLa Kyoto [2] (cell cycle stage: mitosis). In the data set with HeLa Kyoto [3], the “solubility change mitosis (log2)” value stood at 0.0133. Moreover, the thermal stability score in the data set on HeLa Kyoto [4] (setting [5]) is 3.64; in the data set with HeLa Kyoto [4] (cell cycle stage: mitosis) it was 3.96.
In the case of “MSERKVLNKYYPPDFDPSKIPKLKLPKDRQYVVRLMAPFNMRCKTCGEYIYKGKKFNARKETVQNEVYLGLPIFRFYIKCTRCLAEITFKTDPENTDYTMEHGATRNFQAEKLLEEEEKRVQKEREDEELNNPMKVLENRTKDSKLEMEVLENLQELKDLNQRQAHVDFEAMLRQHRLSEEERRRQQQEEDEQETAALLEEARKRRLLEDSDSEDEAAPSPLQPALRPNPTAILDEAPKPKRKVEVWEQSVGSLGSRPPLSRLVVVKKAKADPDCSNGQPQAAPTPGAPQNRKEANPTPLTPGASSLSQLGAYLDSDDSNGSN [CCDC94]”, the “solubility in G1/S (log2)” value in the data set on HeLa Kyoto [1] was 0.299. For the same substance, the results for the melting temperature in the data set on HeLa Kyoto [2] (cell cycle stage: G1/S) and in the data set with HeLa Kyoto [2] (cell cycle stage: mitosis) were 51.6 °C and 52.3 °C, respectively. Besides, in the data set on HeLa Kyoto [3], the “solubility change mitosis (log2)” value is -0.0138. The thermal stability score came out at 0.296 in the data set on HeLa Kyoto [4] (setting [5]) and 0.409 in the data set on HeLa Kyoto [4] (cell cycle stage: mitosis).

For the origin of these results see the supplement of paper PMC5998384.
